# Laboratory results: the RNAGym collection of RNA variant scans (doi:10.1073/pnas.2313332121)
# B1: TPR t1 (parent)
# chain: GACCAAUCUGCCCUCAGAGCUCGAGAACAUCUUCGGAUGCAGAGGAGGCAGGCUUCGGUGGCGCGAUAGCGCCAACGUCCUCAACCUCCAAUGCAUCCCACCACAUGAUGAUGCCUGAAGAGCCUUGGUUUUUUG
# Variants of: B1
# Experiment: polymerase ribozyme fitness, log enrichment relative to wild type (log ratio); higher = more active; in vitro selection for triplet polymerase activity
# In short: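 Libraries of mutants in each subunit of a heterodimeric triplet polymerase ribozyme were generated by PCR and transcribed. In triplicate, each went through one in vitro selection round: annealing with biotinylated primer, partner subunit and triplets; frozen incubation at −7 °C; gel excision of extended constructs; streptavidin-bead capture; RT-PCR. Fitness, taken from Illumina sequencing of input and output libraries, is the logarithm of a genotype's enrichment over wild-type enrichment, averaged across replicates with inverse-variance weights. The logarithm is base 2, and genotypes needed ≥10 input reads and ≥1 read per output to be kept.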
row,Variant,polymerase ribozyme fitness (log ratio)
1,GACCAAUCUGCCCUCAGAGCUCGAGAAUAUCUUCGGAUGCAGAGGAGGCAGGCUUCGGUGGCGCGAUAGGGCCAACGUCCUCAACCUCCAAUGCAUCCCACCACAUGAUGAUGCCUGAAGAGCCUUGGUUUUUUG [C28U C70G],-4.94
2,GACCAAUCUGCCCUCAGAGCUCGAGAAUAUCUUCGGAUGCAGAGGAGGCAGGCUUCGGUGGCGCGAUAGCGCCAACGUCCUCAACCUCCAAUGCAUCCCAUCACAUGAUGAUGCCUGAAUAGCCUUGGUUUUUUG [C28U C101U G120U],-3.5
3,GACCAAUCUGCCCUCAGAGCUCGAGAAUAUCUUCGGAUGCAGAGGAGGCAGGCUUCGGUGGCGCGAUAGCGCCAACGUCCUCAACCUCCAAUGCAUCCCAACACAAGAUGAUGCCUGAAGAGCCUUGGUUUUUUG [C28U C101A U106A],-1.04
4,GACCAAUCUGCCCUCAGAGCUCGAGAAUAUCUUCGGAUGCAGAGGAGGCAGGCUUCGGUGGCGCGAUAGCGCCAACGUCCUCAACUUCCAAUGCAUCCCACCACAUGAUGAUGCCUGAAGAGCCUUGGUUUUUUG [C28U C86U],-2.31
5,GACCAAUCUGCCCUCAGAGCUCGAGAAUAUCUUCGGAUGCAGAGGAGGCAGGCUUCGGUGGCGCGAUAGCGUCAACGUCCUCAACCUCCAAUGCAUCCCACCACAUGAUGAAGCCUGAAGAACCUUGGAUUUUUG [C28U C72U U112A G122A U129A],-4.79
6,GACCAAUCUGCCCUCAGAGCUCGAGAAUAUCUUCGGAUGCAGAGGAGGCAGGCUUCGGUGGCGCGAUAGCGCCAACGUCCUCAACCUCCAAUGCAUCCCACCACAUGAUGAUGCCUGAAGAGACUUGGUUUUUUG [C28U C123A],-1.91
7,GACCAAUCUGCCCUCAGAGCUCGAGAAUAUCUUCGGAUGCAGAGGAGGUAGGCUUCGGUUGCGCGAUAGCGCCAGCGUCCUCAACCUCCAAUGCAUCCCACCACAUGAUGAUGCCUGAAGAGCCUUGGUUUUUUG [C28U C49U G60U A75G],-3.76
8,GACCAAUCUGCCCUCAGAGCUCGAGAAUAUCUUCGGAUGCAGAGGAGGCAGGCUUCGGUGGCGUGAUAGCGCCAACGUCCUCAACCUCCAAUGCAUCCCACCACAUGAUGAUGCCUGAAGAGCCUUGGUUUUUUG [C28U C64U],-2.29
9,GACCAAUCUGCCCUCAGAGCUCGAGAAUAUCUUCGGAUGCAGAGGAGGCAGGCUUCGGUGGCGCGAUAGCGCCAACGUCCUCAACCUUCAAUGCAUCCCACCACAUGAUGAUGCCUGAAGAGCCUUGGUUUUUUG [C28U C88U],-1.61
10,GACCAAUCUGCCCUCAGAGCUCGAGAAUAUCUUCGGAUGCAGAGGAGGCAGGCUUCGGUGGCGCGAUAGCGCGAACGUCCUCAACCUCCAAUGCAUCCCACCACAUGAUGAUGCCUGAAGAGCCUUGGUUUUUUG [C28U C73G],-2.44
11,GACCAAUCUGCCCUCAGAGCUCGAGAAUAUCUUCGGAUGCAGAGGAGGCAGGCUUCGGUGGCGCGAUAGCGCUAACGUCCUCAACCUCCAAUGCAUCCCACCACAUGAUGAUGCCUGAAGAGCCUUGGUUUUUUG [C28U C73U],-1.11
12,GACCAAUCUGCCCUCAGAGCUCGAGAAUAUCUUCGGAUGCAGAGGAGGCAGGCUUCGGUGGCGCGAUAGCGCCAACGUCCUCAACCUCUAAUGCAUCCCACCACAUGAUGAUGCCUGAAGAGCCUUGGUUUUUUG [C28U C89U],-2.51
13,GACCAAUCUGCCCUCAGAGCUCGAGAAUAUCUUCGGAUGCAGAGGAGGCAGGCUUCGGUGGCGCGAUAGCGCCAACGUCCUCAACCUCCAAUGCAUCCCAACACAUGAUGAUGCCUGAAGAGGCUUGUUUUUUUG [C28U C101A C123G G128U],-3.71
14,GACCAAUCUGCCCUCAGAGCUCGAGAAUAUCUUCGGAUGCAGAGGAGGCAGGCUUCGGUGGCGCGAUAGCGCCAACGUGCUCAACCUCCAAUGCAUCCCACCACAUGAUGAUGCCUGAAGAGCCUUGGUUUUUUG [C28U C79G],-4.3
15,GACCAAUCUGCCCUCAGAGCUCGAGAAUAUCUUCGAAUGCAGAGGAGACAGGCUUCGGUGGCGCGAUAGCGCCAACGUCCUCAACCUCCAAUGCAUCCCACCACAUGAUGAUGCCUGAAGAGCCUUGGUUUUUUG [C28U G36A G48A],-3.89
16,GACCAAUCUGCCCUCAGAGCUCGAGAAUAUCUUCGGAUGCAGAGGAGGCAGGCUUGCGUGGCGCGAUAGCGCCAACGUCCUCAACCUCCAAUGCAUCCCACCACAUGAUGAUGCCUGAAGAGCCUUGGUUUUUUG [C28U C56G G57C],-2.34
17,GACCAAUCUGCCCUCAGAGCUCGAGAAUAUCUUCGGAUGCAGAGGAGGCAGGCUUCGGUGGCGAGAUAGCGCCAACGUCCUCAACCUCCAAUGCGUCCCACCACAUGAUGAUGCAUGAAGAGCCUUGGCUUUUAG [C28U C64A A95G C115A U129C U134A],-4.91
18,GACCAAUCUGCCCUCAGAGCUCGAGAAUAUCUUCGGAUGCAGAGGAGGGAGGCUUCGGUGGCGCGAUAGCGCCAACGUCCUCAACCUCCAAUGCAUCCCACCACAUGAUGAUGCCUGAAGAGCCUUGGUUUUUUG [C28U C49G],-3.16
19,GACCAAUCUGCCCUCAGAGCUCGAGAAUAUCUUCGGAUGCAGAGGAGGCAGGGUUCGGGGGCGCGAUAGCGCCAACGUCCUCAACCUCCAAUGCAUCCCACCACAUGAUGAUGCCUGAAGAGCCUUGGUUUUUUG [C28U C53G U59G],-2.35
20,GACCAAUCUGCCCUCAGAGCUCGAGAAUAUCUUCGGAUGCAGAGGAGGCAGGCUUGGGUGGCGCGAUAGCGCCAACGUCCUCAACCUCCAAUGCAUCCCACCACAUGAUGAUGCCUGAAGAGCCUUGGUUUUUUG [C28U C56G],-2.75
21,GACCAAUCUGCCCUCAGAGCUCGAGAAUAUCUUCGGAUGCAGAGGAGGCAGGGUUCGCUCGCGCGAUAGCGCCAACGUCCUCAACCUCCAAUGCAUCCCACCACAUGAUGAUGCCUGAAGAGCCUUGGUUUUUUG [C28U C53G G58C G60C],-3.2
